Source: PMC7280309 (Nature Communications, 2020)

T1: DotL with a C-terminal Strep-tag (Legionella pneumophila, UniProt Q5ZYC6 1-783)
T1 sequence: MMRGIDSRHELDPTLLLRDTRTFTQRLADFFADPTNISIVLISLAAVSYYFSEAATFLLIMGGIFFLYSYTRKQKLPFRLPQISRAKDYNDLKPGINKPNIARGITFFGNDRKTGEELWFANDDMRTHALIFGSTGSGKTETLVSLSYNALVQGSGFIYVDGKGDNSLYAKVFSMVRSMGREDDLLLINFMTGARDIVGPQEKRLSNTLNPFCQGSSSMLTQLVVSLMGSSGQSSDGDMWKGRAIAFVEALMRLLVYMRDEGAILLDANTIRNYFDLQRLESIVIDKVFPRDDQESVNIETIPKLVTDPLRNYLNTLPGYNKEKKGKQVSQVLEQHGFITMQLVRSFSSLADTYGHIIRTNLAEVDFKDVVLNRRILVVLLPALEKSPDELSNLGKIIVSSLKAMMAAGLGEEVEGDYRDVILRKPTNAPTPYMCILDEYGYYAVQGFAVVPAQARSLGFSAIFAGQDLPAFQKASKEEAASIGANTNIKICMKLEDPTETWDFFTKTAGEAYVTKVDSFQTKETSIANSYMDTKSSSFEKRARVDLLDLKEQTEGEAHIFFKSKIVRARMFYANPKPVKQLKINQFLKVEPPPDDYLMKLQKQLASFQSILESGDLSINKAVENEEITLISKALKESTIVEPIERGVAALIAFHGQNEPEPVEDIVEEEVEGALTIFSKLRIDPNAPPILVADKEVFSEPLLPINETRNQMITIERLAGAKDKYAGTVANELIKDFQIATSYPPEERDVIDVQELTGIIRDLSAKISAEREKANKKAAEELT

B1: DotZ (natural protein)
chain: MDEIKKDDELSQWLSTYGTITAERILGRYNISLPQDEILEAINIPSSFYRHLLQIPLKNVLNGIVIQQASDYHVYAQKLLIDYLLSGESSKEPDSQGAGTRESLEDERQRLVQLGDEFHKLELEQDNLIASSQASLMKISIDWNTKLETTLSKLNSLYKNTNSKIKKNAIRKALIKAFIHCDLVKDQSQKNKYQLIDKLNQTLAVSVGAELKESILTNLSELFQILEALNTKLDEFTDRTNHLSQQAKSFRTQFYEVILRIIELIKLLPEYKIDPAQDAINREPLYFDRTIGER
B2: DotY (natural protein)
chain: MPKYTLPTRDALLKAMQVGETSIEAAEYMATRFEQILTKAKLLPECNDMLEKIKEYAQFVKFKLLSSAQVWSGQERPTSDYQNTQENKAEFLASHLEGLPSGLKLEVAIGDDAKILRGFSSNGKMVEGDQLKTMDGLLEGWLAKNSLAISGGAVVKIDNTGNQTKVDPQEIRQLINDSEKGVAKYFADKGVGMEVAQRTYQEPKALETKREEIRQEIESGAEAPTTQSIR
B3: DotN (natural protein)
chain: MNVNQTMADNQQRCELKLIASPGSWRLYSARKIDERFKSYEQKIFQRDRYTCQFCGFQARLYQDIVNLDGDYTNNRLSNLVTACCFCAQCFFVESVGVGGYGGGTLIYLPELTQAELNSLCHVLFCAITNDTGYKSSAQNIYRSFKFRSQIVEEKFGEGTSDPAIFGQLMIDSGVNSEEIREKLFKNIRLLPSRAKFRKQIEKWAASALEEIAD

Columns and labels:
[1] = target: T1, DotL with a C-terminal Strep-tag; assay: affinity purification with mass spectrometry; conditions: partners not purified
[2] = target: B1; assay: cryo-EM structure; conditions: both partners purified
[3] = target: B2; assay: cryo-EM structure; conditions: both partners purified

Binder	binding result [1]	binding result [2]	binding result [3]
B1	binds		
B2		binds	
B3	binds	binds	binds
